Publication PMC8224933

Molecular target: atypical chemokine receptor 3 (human (endogenous in hVSMCs)), P25106
Test: proximity ligation; Duolink II PLA on hVSMCs fixed with 4% paraformaldehyde; two primary antibodies from differing species (1:500, 37°C, 105 min); control: omission of one primary antibody; PLA signals per cell counted; cells untreated or incubated 72 h with non-targeting, CXCR4, ACKR3 or AVPR1A siRNA
Conditions: remark: other sources report otherwise

atypical chemokine receptor 3 (human (endogenous in hVSMCs)), P25106, sequence (P25106 whole entry): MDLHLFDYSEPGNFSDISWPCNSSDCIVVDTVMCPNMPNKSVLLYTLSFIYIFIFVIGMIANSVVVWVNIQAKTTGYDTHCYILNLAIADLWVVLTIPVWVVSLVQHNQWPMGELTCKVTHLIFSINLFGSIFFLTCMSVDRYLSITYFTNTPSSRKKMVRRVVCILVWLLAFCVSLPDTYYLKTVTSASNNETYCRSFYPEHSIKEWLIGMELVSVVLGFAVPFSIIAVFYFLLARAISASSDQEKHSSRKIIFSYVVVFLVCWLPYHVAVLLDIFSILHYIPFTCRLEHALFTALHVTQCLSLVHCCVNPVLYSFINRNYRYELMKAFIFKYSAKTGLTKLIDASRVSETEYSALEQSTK

increase in PLA signals after AVPR1A siRNA, % of NT siRNA: 59%
B1: chemokine (C-X-C motif) receptor 4, P61073 1-352 (receptor)
chain: MEGISIYTSDNYTEEMGSGDYDSMKEPCFREENANFNKIFLPTIYSIIFLTGIVGNGLVILVMGYQKKLRSMTDKYRLHLSVADLLFVITLPFWAVDAVANWYFGNFLCKAVHVIYTVNLYSSVLILAFISLDRYLAIVHATNSQRPRKLLAEKVVYVGVWIPALLLTIPDFIFANVSEADDRYICDRFYPNDLWVVVFQFQHIMVGLILPGIVILSCYCIIISKLSHSKGHQKRKALKTTVILILAFFACWLPYYIGISIDSFILLEIIKQGCEFENTVHKWISITEALAFFHCCLNPILYAFLGAKFKTSAQHALTSVSRGSSLKILSKGKRGGHSSVSTESESSSFHSS
